Measurements taken from the supplement of paper PMC7877785.
± gives the uncertainty stated by the source.

Assay: self-splicing fitness, log relative to wild type (ln ratio); higher = more splicing; Tetrahymena group I intron in knt gene, E. coli kanamycin selection, DiMSum; sequences stand for … in CUCUCU…GGAGGGAAAAGUUAUCAGGCAUGCACCUGGUAGCUAGUCUUUAAACCAAUAGAUUGCAUCGGUUUAAAAGGCAAGACCGUCAAAUUGCGGGAAAGGGGUCAACAGCCGUUCAGUACCAAGUCUCAGGGGAAACUUUGAGAUGGCCUUGCAAAGGGUAUGGUAAUAAGCUGACGGACAUGGUCCUAACCACGCAGCCAAGUCCUAAGUCAACAGAUCUUCUGUUGAUAUGGAUGCAGUUCACAGACUAAAUGUCGGUCGGGGAAGAUGUAUUCUUCUCAUAAGAUAUAGUCGGACCUCUCCUUAAUGGGAGCUAGCGGAUGAAGUGAUGCAACACUGGAGCCGCUGGGAACUAAUUUGUAUGCGAAAGUAUAUUGAUUAGUUUUGGAGUACUCGUGGUCG
Summary of the method: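 A randomised library covering all eight P1ex-region intron nucleotides was built with the intron in the knt kanamycin-resistance gene on pET-22b(+) and held in E. coli BL21(DE3). Cells were grown overnight at 37°C or 30°C on LB agar, with or without 25 μg/mL kanamycin, plus 100 μg/mL carbenicillin, 50 μM IPTG and 0.2% rhamnose, and pooled colonies were amplicon-sequenced on an Illumina HiSeq 2500. DiMSum fitness is the error-weighted combination of wild-type-normalised replicate fold changes, kanamycin versus none.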

| Sequence | self-splicing fitness (ln) (30 °C) | self-splicing fitness (ln) (37 °C) |
| --- | --- | --- |
| CCGUAGCAAUAUUACGCGCU | -3.4 ± 0.4 | -1.57 ± 0.3 |
| CAGCAGCAAUAUUACGACCU | -2.57 ± 0.14 | -1.57 ± 0.12 |
| CGCGAGCAAUAUUACGUAAC | -2.76 ± 0.41 | -1.76 ± 0.27 |
| AUAAAGCAAUAUUACGACGU | 0.742 ± 0.063 | 0.786 ± 0.074 |
| AAUAAGCAAUAUUACGAAAU | -2.34 ± 0.14 | -1.4 ± 0.15 |
| CCGGAGCAAUAUUACGUGAG | -1.33 ± 0.12 | -0.689 ± 0.1 |
| GCCCAGCAAUAUUACGGAAU | -0.828 ± 0.056 | 0.223 ± 0.078 |
| UUAAAGCAAUAUUACGGAGA | -1.64 ± 0.15 | 0.00703 ± 0.2 |
| UUAAAGCAAUAUUACGGCUA | 0.185 ± 0.091 | 0.424 ± 0.12 |
| CCCCAGCAAUAUUACGAUGU | -4.53 ± 0.2 | -3.11 ± 0.17 |
| GUUGAGCAAUAUUACGCCUU | -2.32 ± 0.28 | -1.78 ± 0.36 |
| AAUAAGCAAUAUUACGGCCC | -0.731 ± 0.17 | 0.533 ± 0.27 |
| GGUAAGCAAUAUUACGAAGG | -3.74 ± 0.25 | -2.84 ± 0.25 |
| CUACAGCAAUAUUACGCUUU | -3.79 ± 0.25 | -2.38 ± 0.16 |
| GGGAAGCAAUAUUACGAGUC | -2.56 ± 0.17 | -1.36 ± 0.16 |
| UUUUAGCAAUAUUACGUCCG | -2.37 ± 0.34 | 0.963 ± 0.33 |
| AUUAAGCAAUAUUACGGGGC | -3 ± 0.21 | -1.98 ± 0.26 |
| ACGGAGCAAUAUUACGAGUU | -3.23 ± 0.22 | -2.54 ± 0.33 |
| UCCCAGCAAUAUUACGGAUG | -3.49 ± 0.2 | -1.31 ± 0.15 |
| CCCUAGCAAUAUUACGAUCA | -3.03 ± 0.25 | -2.22 ± 0.24 |
| AAUGAGCAAUAUUACGUAAG | -2.38 ± 0.22 | -2.2 ± 0.23 |
| UCUUAGCAAUAUUACGUGUG | -2.13 ± 0.13 | -0.484 ± 0.099 |
| ACAGAGCAAUAUUACGGCGC | -1.6 ± 0.14 | -0.0642 ± 0.18 |
| CAUCAGCAAUAUUACGCGUC | -2.58 ± 0.089 | -0.783 ± 0.086 |

| Sequence | self-splicing fitness (ln) (30 °C) | self-splicing fitness (ln) (37 °C) |
| --- | --- | --- |
| CAGAAGCAAUAUUACGGUCC | -2.94 ± 0.33 | – |
| CCAAAGCAAUAUUACGGAUA | -2.87 ± 0.22 | -2.17 ± 0.31 |
| AGCCAGCAAUAUUACGCCUG | -2.37 ± 0.16 | -2.11 ± 0.27 |
| UGGGAGCAAUAUUACGGGCU | -1.78 ± 0.35 | – |
| CGAAAGCAAUAUUACGGUGG | -0.576 ± 0.046 | 0.0831 ± 0.066 |
| UCGGAGCAAUAUUACGUCUA | -2.52 ± 0.14 | -1.89 ± 0.14 |
| GGAUAGCAAUAUUACGACAA | -0.923 ± 0.12 | -0.865 ± 0.14 |
| GCACAGCAAUAUUACGGGAG | -1.96 ± 0.1 | -1.47 ± 0.12 |
| GCUAAGCAAUAUUACGGGAG | -3.12 ± 0.34 | -1.28 ± 0.17 |
| GUCGAGCAAUAUUACGUCUC | -1.76 ± 0.42 | -0.346 ± 0.27 |
| CUUAAGCAAUAUUACGAGAG | -4.39 ± 0.42 | -2.48 ± 0.45 |
| UGGAAGCAAUAUUACGUGUC | – | -2.38 ± 0.18 |
| GGUCAGCAAUAUUACGUCAU | -0.37 ± 0.088 | 0.00388 ± 0.12 |
| AAGUAGCAAUAUUACGGCAG | -2.54 ± 0.18 | -1.77 ± 0.18 |
| UAAUAGCAAUAUUACGGGGG | -3.12 ± 0.19 | -3.37 ± 0.39 |
| CACAAGCAAUAUUACGGACC | -3.41 ± 0.24 | -1.73 ± 0.2 |
| CGCAAGCAAUAUUACGACUC | -1.3 ± 0.12 | -0.869 ± 0.19 |
| ACGUAGCAAUAUUACGGUAC | -3.46 ± 0.18 | -2.57 ± 0.3 |
| GUAAAGCAAUAUUACGGUCA | -0.163 ± 0.072 | 0.362 ± 0.097 |
| CUGAAGCAAUAUUACGGUCC | -3.78 ± 0.34 | -2.38 ± 0.46 |
| UAUCAGCAAUAUUACGGUCU | -0.719 ± 0.092 | -0.878 ± 0.11 |
| AACCAGCAAUAUUACGGCCU | 0.12 ± 0.075 | -0.853 ± 0.082 |
| GGUAAGCAAUAUUACGUCGC | -1.17 ± 0.13 | -0.683 ± 0.13 |
| CAACAGCAAUAUUACGUUAA | -2.36 ± 0.11 | -2.16 ± 0.12 |
